Target: the molecule itself
Experiment: cross-linking

Row | Protein | stoichiometry N
1 | Wild type MtrR of Neisseria gonorrhoeae (strain FA19), hexa-histidine tagged (natural protein) MRKTKTEALKTKEHLMLAALETFYRKGIARTSLNEIAQAAGVTRGALYWHFKNKEDLFDALFQRICDDIENCIAQDAADAEGGSWTVFRHTLLHFFERLQSNDIHYKFHNILFLKCEHTEQNAAVIAIARKHQAIWREKITAVLTEAVENQDLADDLDKETAVIFIKSTLDGLIWRWFSSGESFDLGKTAPRIIGIMMDNLENHPCLRRK | 2
2 | H105Y mutant MtrR of Neisseria gonorrhoeae (from an antibiotic resistant clinical isolate), hexa-histidine tagged (natural protein) MRKTKTEALKTKEHLMLAALETFYRKGIARTSLNEIAQAAGVTRGALYWHFKNKEDLFDALFQRICDDIENCIAQDAADAEGGSWTVFRHTLLHFFERLQSNDIYYKFHNILFLKCEHTEQNAAVIAIARKHQAIWREKITAVLTEAVENQDLADDLDKETAVIFIKSTLDGLIWRWFSSGESFDLGKTAPRIIGIMMDNLENHPCLRRK | 2

Reference: article doi:10.1101/2020.07.07.192807 (bioRxiv, 2020)
